# Experiments:
# [1] = biological target: human transferrin receptor 1 (human) (UniProt P02786); assay: Carterra LSA at 25C, IgG captured on anti-IgG lawn, hTfR1 injected, 1:1 Langmuir fit
# [2] = biological target: human transferrin receptor 2 (human) (UniProt Q9UP52); assay: ELISA on human TfR2, RFU
# Chain of human transferrin receptor 2 (human) (Q9UP52 105-801 limits assumed): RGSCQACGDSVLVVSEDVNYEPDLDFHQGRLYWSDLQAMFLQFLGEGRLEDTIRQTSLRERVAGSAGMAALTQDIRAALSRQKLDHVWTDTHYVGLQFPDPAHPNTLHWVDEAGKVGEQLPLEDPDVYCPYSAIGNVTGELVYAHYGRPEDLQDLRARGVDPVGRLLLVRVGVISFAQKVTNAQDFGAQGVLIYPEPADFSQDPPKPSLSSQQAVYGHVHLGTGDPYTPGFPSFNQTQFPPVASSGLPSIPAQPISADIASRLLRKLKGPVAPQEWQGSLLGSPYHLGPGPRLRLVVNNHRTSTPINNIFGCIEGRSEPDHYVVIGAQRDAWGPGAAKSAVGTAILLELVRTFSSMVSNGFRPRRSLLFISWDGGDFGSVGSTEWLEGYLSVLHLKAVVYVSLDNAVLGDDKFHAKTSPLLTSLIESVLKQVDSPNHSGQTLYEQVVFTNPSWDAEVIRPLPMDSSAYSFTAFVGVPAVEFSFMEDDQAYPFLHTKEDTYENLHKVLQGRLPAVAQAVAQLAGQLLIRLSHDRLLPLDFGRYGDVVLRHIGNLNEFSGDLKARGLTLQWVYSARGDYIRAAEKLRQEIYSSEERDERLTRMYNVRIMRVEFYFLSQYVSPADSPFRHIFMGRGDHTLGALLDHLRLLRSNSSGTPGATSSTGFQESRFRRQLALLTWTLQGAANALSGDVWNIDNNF
# Chain of human transferrin receptor 1 (human) (P02786 89-760 limits assumed): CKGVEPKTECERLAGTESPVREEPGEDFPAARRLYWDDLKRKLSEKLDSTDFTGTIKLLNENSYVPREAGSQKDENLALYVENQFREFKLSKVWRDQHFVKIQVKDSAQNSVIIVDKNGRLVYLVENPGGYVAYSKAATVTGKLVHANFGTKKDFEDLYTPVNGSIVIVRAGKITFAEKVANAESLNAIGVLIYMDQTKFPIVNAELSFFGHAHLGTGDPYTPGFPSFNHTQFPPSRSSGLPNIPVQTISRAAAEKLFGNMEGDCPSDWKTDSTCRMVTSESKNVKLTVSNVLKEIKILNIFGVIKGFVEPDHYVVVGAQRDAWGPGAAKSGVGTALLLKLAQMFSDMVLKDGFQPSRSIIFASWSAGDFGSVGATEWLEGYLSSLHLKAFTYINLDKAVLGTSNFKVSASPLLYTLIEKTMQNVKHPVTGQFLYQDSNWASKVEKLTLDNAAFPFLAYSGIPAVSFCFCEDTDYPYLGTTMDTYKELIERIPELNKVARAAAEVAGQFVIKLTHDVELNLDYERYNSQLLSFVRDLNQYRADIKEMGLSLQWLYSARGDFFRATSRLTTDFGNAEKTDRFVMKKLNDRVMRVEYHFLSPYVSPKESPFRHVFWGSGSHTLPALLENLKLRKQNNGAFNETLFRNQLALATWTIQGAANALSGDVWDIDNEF
Kd [1] [nM],kon [1] [M⁻¹ s⁻¹],EC50 (read off the curve) [2] [nM],Substance
0.536,774000,–,OKT9 mIgG (antibody)
–,–,2,TfR2 Monoclonal Antibody (OTI1B1)

# From patent publication US20230111212A1, “MUSCLE TARGETING COMPLEXES AND USES THEREOF FOR TREATING DYSTROPHINOPATHIES” (Dyne Therapeutics, Inc., priority 2020, published 2023)
